# Changes are numbered by the printed parent chain.
# T1: MICB*005 on HCC1534 cells (human, UniProt Q29980 23-383)
# T1 sequence (looked up): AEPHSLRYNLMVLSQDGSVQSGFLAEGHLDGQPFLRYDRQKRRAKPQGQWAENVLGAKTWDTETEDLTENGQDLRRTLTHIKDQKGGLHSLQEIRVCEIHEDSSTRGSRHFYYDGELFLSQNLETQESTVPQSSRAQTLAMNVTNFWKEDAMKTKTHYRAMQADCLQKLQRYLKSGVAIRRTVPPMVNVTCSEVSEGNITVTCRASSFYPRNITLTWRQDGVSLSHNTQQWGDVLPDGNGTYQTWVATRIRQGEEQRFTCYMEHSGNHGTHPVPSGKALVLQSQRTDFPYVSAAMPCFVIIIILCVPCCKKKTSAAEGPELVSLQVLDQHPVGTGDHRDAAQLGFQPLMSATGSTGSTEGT
# T2: MICA*008 on MEL-JUSO cells (human, UniProt Q29983 24-317)
# T2 chain: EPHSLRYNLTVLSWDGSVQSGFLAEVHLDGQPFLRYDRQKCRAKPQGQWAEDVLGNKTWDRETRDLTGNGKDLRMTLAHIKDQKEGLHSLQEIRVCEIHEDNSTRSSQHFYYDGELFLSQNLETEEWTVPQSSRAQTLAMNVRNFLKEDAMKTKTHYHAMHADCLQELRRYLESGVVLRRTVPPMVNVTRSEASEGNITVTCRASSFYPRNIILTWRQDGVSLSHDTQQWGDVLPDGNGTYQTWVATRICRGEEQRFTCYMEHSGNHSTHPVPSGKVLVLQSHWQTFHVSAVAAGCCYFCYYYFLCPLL
# T3: MICA008.His (human MICA*008 alpha 3 domain, His tagged) (human)
# T3 construct: Also used for FPOP (expressed in CHO); also called huMICA*008 alpha 3-his; MICA*008 a3
# T3 chain: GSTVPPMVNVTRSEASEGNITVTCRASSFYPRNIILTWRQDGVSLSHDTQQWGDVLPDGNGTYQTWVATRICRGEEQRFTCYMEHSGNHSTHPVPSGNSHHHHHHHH
# T4: MICA002.His (human MICA*002 alpha 3 domain, His tagged) (human)
# T4 construct: also called huMICA*002 alpha 3-his
# T4 chain: T3 chain with S28G, R32W, I35T, T37S, R73Q
# T5: MICA004.His (human MICA*004 alpha 3 domain, His tagged) (human)
# T5 construct: also called huMICA*004 alpha 3-his
# T5 chain: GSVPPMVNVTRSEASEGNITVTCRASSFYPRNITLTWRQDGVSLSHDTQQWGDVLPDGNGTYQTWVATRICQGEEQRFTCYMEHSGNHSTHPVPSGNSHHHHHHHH
# T6: MICB005.His (human MICB*005 alpha 3 domain, His tagged) (human)
# T6 construct: also called huMICB*005 alpha 3-his
# T6 chain: T3 chain with R12C, A15V, I35T, D48N, C72R, R73Q, S90G
# T7: MICA.008.a3.T204-S297.H248N.mIgG2a.Glyco15 (human; mouse, UniProt Q29983 204-297, engineered N-linked glycosylation site H248N)
# T7 construct: not shown: murine IgG2a Fc
# T7 chain: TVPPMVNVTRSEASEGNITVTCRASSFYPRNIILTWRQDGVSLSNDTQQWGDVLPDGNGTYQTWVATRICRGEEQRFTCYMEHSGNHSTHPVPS
# T8: MICA.008.a3.T204-S297.C-terminal insert of N298.G299.S300.mIgG2a.Glyco17 (human; mouse, UniProt Q29983 204-297, engineered N-linked glycosylation site at inserted N298)
# T8 construct: not shown: murine IgG2a Fc
# T8 chain: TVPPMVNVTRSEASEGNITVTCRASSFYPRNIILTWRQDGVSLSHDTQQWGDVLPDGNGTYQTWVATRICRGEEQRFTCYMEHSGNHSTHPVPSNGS
# T9: MICA.008.a3.R202-S297.R202N mIgG2a.Glyco11 (human; mouse, UniProt Q29983 203-297, engineered N-linked glycosylation site R202N)
# T9 construct: not shown: murine IgG2a Fc
# T9 chain: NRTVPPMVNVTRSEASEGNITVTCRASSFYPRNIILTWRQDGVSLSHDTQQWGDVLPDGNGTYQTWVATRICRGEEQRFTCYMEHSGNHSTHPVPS
# T10: MICA.008.a3.T204-S297.I236T.mIgG2a.Glyco13 (human; mouse, UniProt Q29983 204-297, engineered N-linked glycosylation site created by I236T)
# T10 construct: not shown: murine IgG2a Fc
# T10 chain: T7 chain with I33T, N45H
# T11: MICA.008.a3.T204-S297.E215N.mIgG2a.Glyco12 (human; mouse, UniProt Q29983 204-297, engineered N-linked glycosylation site E215N)
# T11 construct: not shown: murine IgG2a Fc
# T11 chain: T7 chain with E12N, N45H
# T12: MICA.008.a3.T204-S297.G243N.mIgG2a.Glyco14 (human; mouse, UniProt Q29983 204-297, engineered N-linked glycosylation site G243N)
# T12 construct: not shown: murine IgG2a Fc
# T12 chain: T7 chain with G40N, N45H
# B1: 15F11 (antibody, V domains shown)
# VH: EIQLQQSGPELVKPGASVRVSCKPSGYAFTSNNIYWVKQSRRKSLEWIGYIDPYIGRIIYNQQFKDKATLTVDKSSSTAYMHLNSLTSEDSAVYYCSRSGERSNFDYWGQGTTLTVSS
# VL: EIVLTQSPTAMAASPGEKITITCSASSSISSNYLHWYQQKPGFSPKLLIYRTSNLASGVPARFSGSGSGTSYSLTIGPMEAEDVATYYCQQGGSLPLTFGAGTKVEIK
# notes: Mouse variable domains; constant regions differ by assay
# B2: 32D2 (antibody, V domains shown)
# VH: DVHLVESGGGLVQPGGSRKLSCAASGFTFNTFGMNWVRQAPEKGLEWVAYINSGSNTIYYADTVKGRFTISRDNPKNTLFLQMTSLRSEDTAMYYCTRWEPVTGGFSYWGQGTLVTVSA
# VL: QIVLTQSPAFKSSSLGERVTMTCTASSSISSSYLHWYQQKPGSSPKLWIYTTSNLASGVPARFSGSGSGTSYSLTISTMEAEDAATYYCHQHHRSPFTFGSGTKVEIK
# notes: Mouse hybridoma antibody; constant regions differ by assay
# B3: 20G11 (antibody, V domains shown)
# VH: DVQLVESGGGLVQPGGSRKLSCAASGFTFSTFGIHWVRQAPEKGLEWVAYISYDSRTIYYADTVKGRFTISRDNPKNTLFLQMTSLRSEDTAMYYCARWAYEGGVNYFDNWGQGTTLTVSS
# VL: QIVLTQSPAIMSASLGERVTMTCTATSGVSSSYLHWYQQKPGSSPKLWIYSSSNLASGVPARFSGSGSGTSYSLTIGSMEAEDAATYYCHQFHRSPLTFGTGTKVEIK
# notes: as for B2
# B4: 3E11 (antibody, V domains shown)
# VH: EIQLQQSGPELVKPGASVKVSCTASGYAFTKYNIYWVKQSHGKSLEWIGYIDPYTGGTISNQKFTGRATLTVDKSSSTAYLHLNSLTSEDSAVYYCARPGSYWYFGVWGAGTTVTVSS
# VL: DILMTQTPLSLPVSLGDQASISCRSSQSIVYTNGNTNLEWYLQKPGQSPKLLIYKVSNRFSGVPDRFSGSGSGTDFTLKISRVEAEDLGVYYCFQASYVPFTFGSGTKVEIK
# notes: as for B2
# B5: 7D4.6 (antibody, V domains shown)
# VH: DVQLQESGPGLVKPSQSLSLTCTVTGYSITSDYAWNWIRQFPRNKLEWMGYINYSGTTNYNPSLKSRISITRDTSKNQFFLQLISVTTEDTATYYCSYYRYDGAWFPYWGQGTLVTVSA
# VL: DIQMTQSPASLSASVGETVTITCRASGNIHNYLAWYQQKQGKSPQLLVYNAIMLADGVPSRFSASGSGTQYSLKINSLQPEDFGSYYCQHFWSFPLTFGAGTKVEIK
# notes: as for B2
# Target: T1, MICB*005 on HCC1534 cells
# Test: cell-based or functional assay
EC50 of shedding inhibition [µg/mL],Max % Inhibition of shedding [%],Binder
0.102,60,B1

# Target: T2, MICA*008 on MEL-JUSO cells
# Test: cell-based or functional assay
EC50 of shedding inhibition [µg/mL],Max % Inhibition of shedding [%],Binder
0.0255,73,B1

# Target: MICA*002 on cells (PANC-1; B16-MICA002) (human, UniProt Q29983 24-383)
# Test: cell-based or functional assay
EC50 of shedding inhibition [µg/mL],Max % Inhibition of shedding [%],Binder
0.0752,54,B1

# Target: T13, MICA*004 on HCC1534 cells (human, UniProt Q29983 24-383)
# Test: cell-based or functional assay
EC50 of shedding inhibition [µg/mL],Max % Inhibition of shedding [%],Binder
0.0375,64,B1

# Target: T3, MICA008.His (human MICA*008 alpha 3 …)
# Test: SPR (Biacore), MICA*008 alpha-3 domain
row,Kd [nM],Binder
1,4,B2
2,3.8,B3

# Target: T3, MICA008.His (human MICA*008 alpha 3 …)
# Test: SPR, antibody captured;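 further: SPR with antibody held by surface-bound anti-Fc while His-tagged alpha three domains flow over, Kd derived by fitting a one-to-one binding model to sensograms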
row,Kd [nM],Binder
1,1.94,B2
2,0.77,B3
3,1.02,B1
4,2.5,B4
5,10,B5

# Target: T4, MICA002.His (human MICA*002 alpha 3 …)
# Test: SPR, antibody captured;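 further: SPR with antibody held by surface-bound anti-Fc while His-tagged alpha three domains flow over, Kd derived by fitting a one-to-one binding model to sensograms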
row,Kd [nM],Binder
1,3.18,B2
2,1.76,B3
3,3.05,B1
4,7.7,B4
5,3.5,B5

# Target: T5, MICA004.His (human MICA*004 alpha 3 …)
# Test: SPR, antibody captured;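 further: SPR with antibody held by surface-bound anti-Fc while His-tagged alpha three domains flow over, Kd derived by fitting a one-to-one binding model to sensograms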
row,Kd [nM],Binder
1,2.85,B2
2,1.06,B3
3,1.22,B1
4,5,B4
5,8.9,B5

# Target: T6, MICB005.His (human MICB*005 alpha 3 …)
# Test: SPR, antibody captured;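 further: SPR with antibody held by surface-bound anti-Fc while His-tagged alpha three domains flow over, Kd derived by fitting a one-to-one binding model to sensograms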
row,Kd [nM],Binder
1,2.82,B2
2,1.05,B3
3,3.28,B1
4,6.8,B4
5,20,B5

# Target: T1, MICB*005 on HCC1534 cells
# Test: cell-based or functional assay
# Remark: another data set of the same source
% max inhibition of shedding [%],EC50 of shedding inhibition [µg/mL],Binder
54,0.0781,B2
51,0.0169,B3
59,0.0736,B1

# Target: T2, MICA*008 on MEL-JUSO cells
# Test: cell-based or functional assay
# Remark: another data set of the same source
% max inhibition of shedding [%],EC50 of shedding inhibition [µg/mL],Binder
71,0.0303,B2
70,0.0285,B3
74,0.0165,B1
70,0.265,B4
26,,B5

# Target: T13, MICA*004 on HCC1534 cells
# Test: cell-based or functional assay
# Remark: another data set of the same source
% max inhibition of shedding [%],EC50 of shedding inhibition [µg/mL],Binder
76,0.0592,B2
69,0.123,B3
86,0.0485,B1
55,0.309,B4
63,0.185,B5

# Target: T7, MICA.008.a3.T204-S297.H248N.mIgG2a.Glyco …
# Test: ELISA, coated variant;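 further: ELISA with plates coated at 2 ug/ml with MICA*008 alpha 3 glycosylation variants as murine IgG2a Fc fusions, antibody binding detected by HRP anti-human IgG Fc and TMB absorbance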
# Method: (§1) Hybridoma derived clones binding to all four MICA/B alleles alpha 3 domains were tested by ELISA for binding to the MICA*008 alpha 3 glycosylation variants fused to murine IgG2a Fc fusion. Nunc maxisorp plates were coated with 2 ug/ml of glycosylation variants as previously described. Cloned and recombinantly expressed hybridoma monoclonal antibodies were added to the plates after blocking with a 1X PBS buffer containing 0.5% BSA and 0.05% Tween 20. After incubation, plates were washed multiple times with wash buffer (1X PBS containing 0.05% Tween 20) and secondary antibody (goat anti-human IgG Fc conjugated to HRP) was added. Plates were then washed multiple times with wash buffer again before adding either BioFX TMB Microwell 1 Component Peroxidase or tetramethylbenzidine (TMB) substrate (KPL; Gaithersburg, Md.). After several minutes of incubation, the reaction was stopped with BioFX stop solution or 1 N solution of HCl, respectively. Plates were read on a Spectra MAX 340 plate reader at either 630 or 450 nm respectively (Molecular Devices; Sunnyvale, Calif.).
row,binding result,Binder
1,binds,B2
2,binds,B3
3,binds,B1
4,binds,B4
5,binds,B5

# Target: T8, MICA.008.a3.T204-S297.C-terminal insert …
# Test: ELISA, coated variant;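 further: ELISA with plates coated at 2 ug/ml with MICA*008 alpha 3 glycosylation variants as murine IgG2a Fc fusions, antibody binding detected by HRP anti-human IgG Fc and TMB absorbance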
# Method: as §1
row,binding result,Binder
1,binds,B2
2,binds,B3
3,binds,B1
4,binds,B4
5,binds,B5

# Target: T9, MICA.008.a3.R202-S297.R202N …
# Test: ELISA, coated variant;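 further: ELISA with plates coated at 2 ug/ml with MICA*008 alpha 3 glycosylation variants as murine IgG2a Fc fusions, antibody binding detected by HRP anti-human IgG Fc and TMB absorbance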
# Method: as §1
row,binding result,Binder
1,binds,B2
2,binds,B3
3,binds,B1
4,binds,B4
5,binds,B5

# Target: T10, MICA.008.a3.T204-S297.I236T.mIgG2a.Glyco …
# Test: ELISA, coated variant;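 further: ELISA with plates coated at 2 ug/ml with MICA*008 alpha 3 glycosylation variants as murine IgG2a Fc fusions, antibody binding detected by HRP anti-human IgG Fc and TMB absorbance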
# Method: as §1
row,binding result,Binder
1,binds,B2
2,binds,B3
3,binds,B1
4,binds,B4
5,binds,B5

# Target: T11, MICA.008.a3.T204-S297.E215N.mIgG2a.Glyco …
# Test: ELISA, coated variant
# Method: as §1
row,binding result,Binder
1,binds,B2
2,binds,B3
3,binds,B1
4,binds,B4
5,binds,B5

# Target: T12, MICA.008.a3.T204-S297.G243N.mIgG2a.Glyco …
# Test: ELISA, coated variant
# Method: as §1
row,binding result,Binder
1,binds,B3

# Reference: patent publication US20200055939A1 (Genentech, published 2020)
